Data as given in publication PMC8427755.

Experiments:
[1] = target: FcγRI on transfected Jurkat cells (human) (UniProt P12314)
[2] = target: human FcRn expressed at the surface of Jurkat cells (human) (UniProt P55899); test: flow cytometry on cells; competitive binding on FcRn-transfected Jurkat cells; Alexa-labelled rituximab (30 ug/mL) with the tested molecule, PBS pH 6.0; mean of 2 experiments
[3] = target: biotinylated human FcRn (Acrobiosystem) (human) (UniProt P55899); test: SPR; Biacore T200, sensor chip CAP; biotinylated human or mouse FcRn captured; samples injected in single cycle kinetic mode, 25°C; 20 mM sodium phosphate, 150 mM NaCl, 0.05% Tween 20, pH 6.0; 1:1 Langmuir model, steady state model for IVIg on hFcRn
[4] = target: biotinylated mouse FcRn (Acrobiosystem) (mouse | not stated) (UniProt Q61559); test: as above
[5] = target: FcγRIIIa-F158 on transfected Jurkat cells (human) (UniProt P08637); test: flow cytometry on cells; competitive binding on FcγRIIIa-F158-transfected Jurkat cells; FITC-conjugated anti-FcγRIIIa 3G8 (0.5 ug/mL) with 17-2168 nM of the tested molecule, 20 min, 4°C, PBS pH 7.4; mean of 2 experiments
UniProt P08637, sequence (P08637 17-254): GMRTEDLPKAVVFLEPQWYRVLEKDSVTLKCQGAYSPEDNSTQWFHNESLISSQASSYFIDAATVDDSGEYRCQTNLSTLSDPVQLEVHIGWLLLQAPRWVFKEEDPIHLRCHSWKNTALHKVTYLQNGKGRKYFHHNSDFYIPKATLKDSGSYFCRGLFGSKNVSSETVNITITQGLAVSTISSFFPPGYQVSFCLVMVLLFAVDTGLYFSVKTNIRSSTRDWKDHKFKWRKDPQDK

[6] = target: FcγRIIb on transfected HEK cells (human) (UniProt P31994); test: flow cytometry on cells; competitive binding on cells transfected with FcγRIIa-H131, FcγRIIa-R131, FcγRIIb or FcγRI; Alexa-labelled rituximab (30 ug/mL) with the tested molecule, PBS pH 7.4; mean of 2 experiments
UniProt P31994, sequence (P31994 43-310): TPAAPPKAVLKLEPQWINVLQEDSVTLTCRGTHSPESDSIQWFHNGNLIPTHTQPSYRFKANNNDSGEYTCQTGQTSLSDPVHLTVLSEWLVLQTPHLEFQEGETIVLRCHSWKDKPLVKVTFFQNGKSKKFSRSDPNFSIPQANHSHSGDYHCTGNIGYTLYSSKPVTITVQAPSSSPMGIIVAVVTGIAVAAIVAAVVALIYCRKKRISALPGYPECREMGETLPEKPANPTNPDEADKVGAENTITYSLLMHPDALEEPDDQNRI

[7] = target: FcγRI on transfected Jurkat cells (human) (UniProt P12314); test: as above
[8] = target: FcγRIIa-H131 on transfected cells (human) (UniProt P12318); test: as above
UniProt P12318, sequence (P12318 34-317): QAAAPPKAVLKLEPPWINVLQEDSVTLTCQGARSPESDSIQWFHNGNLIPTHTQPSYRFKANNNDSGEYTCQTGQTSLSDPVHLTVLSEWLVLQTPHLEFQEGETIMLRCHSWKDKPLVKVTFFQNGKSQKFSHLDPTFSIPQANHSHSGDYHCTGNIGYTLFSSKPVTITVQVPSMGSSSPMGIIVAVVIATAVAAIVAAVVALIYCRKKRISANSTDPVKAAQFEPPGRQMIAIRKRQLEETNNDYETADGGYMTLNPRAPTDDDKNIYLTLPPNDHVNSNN

[9] = target: FcγRIIa-R131 on transfected HEK cells (human); test: as above
[10] = target: His-tagged hFcγRIIIa (Sinobiological) (human) (UniProt P08637); test: SPR; Biacore T200, CM5 chip with anti-His capture; His-tagged hFcγRIIIa or mFcγRIV captured; 15 mM Tris-HCl, 150 mM NaCl, 0.005% Tween 20, pH 7.4, 25°C; single cycle (hFcγRIIIa) or multi cycle (mFcγRIV) kinetics; 1:1 Langmuir model, two state reaction model for LFBD192 on hFcγRIIIa
[11] = target: His-tagged mFcγRIV (R&D Systems) (mouse); test: as above
[12] = target: recombinant human FcRn receptor (FcRn alpha-chain and beta2-microglobulin heterodimer), biotinylated (human) (UniProt P55899); test: BLI; Octet RED96; biotinylated hFcRn fixed on streptavidin biosensors; Fc samples 200-3.125 nM; 0.1 M phosphate, 150 mM NaCl, 0.05% Tween 20, pH 6.0; 1/1 model; means of 3 experiments
[13] = target: Recombinant human FcγRIIIa V/CD16aV (human); test: BLI; Octet RED96; His-tagged hFcγRIIIa V fixed on anti-penta-His (HIS-1K) biosensors; Fc samples 1,000-15.625 nM in kinetic buffer, pH 7.4; 1/1 model; means of 3 experiments

UniProt P12314, sequence (P12314 16-374): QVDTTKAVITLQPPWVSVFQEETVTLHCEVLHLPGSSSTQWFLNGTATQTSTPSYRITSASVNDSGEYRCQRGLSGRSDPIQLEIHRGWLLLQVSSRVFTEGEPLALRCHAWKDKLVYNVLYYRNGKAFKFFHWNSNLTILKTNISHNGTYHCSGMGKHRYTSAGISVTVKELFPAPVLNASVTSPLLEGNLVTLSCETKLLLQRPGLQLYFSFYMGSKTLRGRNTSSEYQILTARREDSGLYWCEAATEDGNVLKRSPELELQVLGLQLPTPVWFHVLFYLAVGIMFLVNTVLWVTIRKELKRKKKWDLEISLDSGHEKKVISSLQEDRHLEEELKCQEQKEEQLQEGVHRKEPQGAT

IC50 of inhibition of IL-2 secretion by FcγRI-transfected Jurkat cells co-cultured with Raji cells coated with rituximab [1] [nM]	inhibitory concentration at 25% of IL-2 secretion by FcγRI-transfected Jurkat cells co-cultured with Raji cells coated with rituximab [1] [nM]	IC50 [2] [nM]	Kd [3] [nM]	Kd [4] [nM]	IC50 [5] [nM]	IC50 [6] [nM]	IC50 [7] [nM]	IC50 [8] [nM]	IC50 [9] [nM]	Kd [10] [nM]	Kd [11] [nM]	Kd [12] [nM]	Kd [13] [nM]	Substance
> 1950	1110	1360	469	17.1	1680	761	880	671	1310	40	554	–	–	intravenous immunoglobulin (IVIg)
–	–	–	–	–	–	–	–	–	–	–	–	36.5	504	rFc-WT (non-mutated Fc fragment of human IgG1) (domain or fragment)
